Data as given in the supplement of paper PMC9112550, “Optimization of the antimicrobial peptide Bac7 by deep mutational scanning” (BMC Biology, 2022).

System: Escherichia coli TOP10
Assay: shrunken log2 fold change of peptide-encoding DNA abundance (4.5 h post-induction vs induction); higher = less antimicrobial activity (less host growth inhibition)
Conditions: time post-induction: 4.5 h; library: site-saturation at positions 5, 18, 19, 20
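Also: peptides expressed intracellularly from a pBAD plasmid library in pooled LB shake-flask culture, induced with 0.3% L-arabinose, DNA abundance read by NGS, three biological replicates, DESeq2 with apeglm shrinkage.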

Row | Sequence | shrunken log2 fold change
1 | RRIRGRPPRLPRPRPRPNCYPRP | 0.183
2 | RRIRHRPPRLPRPRPRPAGIPRP | -0.282
3 | RRIRERPPRLPRPRPRPKIEPRP | -0.151
4 | RRIRNRPPRLPRPRPRPVCTPRP | -0.157
5 | RRIRCRPPRLPRPRPRPILFPRP | -0.405
6 | RRIRARPPRLPRPRPRPWAFPRP | 0.222
7 | RRIRFRPPRLPRPRPRPASHPRP | 0.0492
8 | RRIRSRPPRLPRPRPRPFGPPRP | 0.132
9 | RRIRPRPPRLPRPRPRPLILPRP | -0.559
10 | RRIRTRPPRLPRPRPRPEDHPRP | -0.0554
11 | RRIRARPPRLPRPRPRPLHNPRP | 0.00865
12 | RRIRIRPPRLPRPRPRPSNQPRP | -1.08
13 | RRIRRRPPRLPRPRPRPDGYPRP | -0.0109
14 | RRIRIRPPRLPRPRPRPTWTPRP | 0.398
15 | RRIRKRPPRLPRPRPRPCKRPRP | -0.194
16 | RRIRKRPPRLPRPRPRPAYNPRP | 0.0771
17 | RRIRHRPPRLPRPRPRPTYEPRP | 0.15
18 | RRIRQRPPRLPRPRPRPVPCPRP | 0.0476
19 | RRIRWRPPRLPRPRPRPSAAPRP | 0.921
20 | RRIRIRPPRLPRPRPRPKMCPRP | 0.168
21 | RRIRGRPPRLPRPRPRPHRCPRP | -0.0209
22 | RRIRLRPPRLPRPRPRPKLWPRP | 0.296
23 | RRIRIRPPRLPRPRPRPEMSPRP | -0.0264
24 | RRIRDRPPRLPRPRPRPMFYPRP | -0.305
25 | RRIRNRPPRLPRPRPRPREEPRP | -0.0547

Row | Sequence | shrunken log2 fold change
26 | RRIRYRPPRLPRPRPRPWVPPRP | -0.0218
27 | RRIRKRPPRLPRPRPRPNTWPRP | 0.0309
28 | RRIRKRPPRLPRPRPRPWNAPRP | 0.0384
29 | RRIRFRPPRLPRPRPRPTWHPRP | -0.0992
30 | RRIRSRPPRLPRPRPRPHSQPRP | 0.0681
31 | RRIRIRPPRLPRPRPRPCWYPRP | -0.461
32 | RRIRIRPPRLPRPRPRPYPKPRP | -0.0684
33 | RRIRIRPPRLPRPRPRPEPPPRP | 0.254
34 | RRIRPRPPRLPRPRPRPSEHPRP | -0.233
35 | RRIRNRPPRLPRPRPRPFMVPRP | -0.646
36 | RRIRYRPPRLPRPRPRPWNTPRP | -0.384
37 | RRIRHRPPRLPRPRPRPLICPRP | -0.493
38 | RRIRMRPPRLPRPRPRPFAHPRP | -0.00592
39 | RRIRDRPPRLPRPRPRPEASPRP | 0.447
40 | RRIRKRPPRLPRPRPRPDFWPRP | 1.06
41 | RRIRTRPPRLPRPRPRPGEFPRP | -0.0751
42 | RRIRWRPPRLPRPRPRPNEYPRP | -0.39
43 | RRIRQRPPRLPRPRPRPTKSPRP | 0.00581
44 | RRIRLRPPRLPRPRPRPPYTPRP | -0.674
45 | RRIRFRPPRLPRPRPRPMACPRP | -0.00146
46 | RRIRDRPPRLPRPRPRPWDVPRP | -0.00145
47 | RRIRDRPPRLPRPRPRPIVQPRP | -0.267
48 | RRIRFRPPRLPRPRPRPNECPRP | -0.00063
49 | RRIRWRPPRLPRPRPRPNSMPRP | -0.114
50 | RRIRWRPPRLPRPRPRPYFHPRP | -0.625

Row | Sequence | shrunken log2 fold change
51 | RRIRARPPRLPRPRPRPCQIPRP | -0.486
52 | RRIRWRPPRLPRPRPRPRHNPRP | 0.576
53 | RRIRQRPPRLPRPRPRPAEYPRP | 0.0734
54 | RRIRGRPPRLPRPRPRPPAIPRP | 0.859
55 | RRIRWRPPRLPRPRPRPECFPRP | 0.671
56 | RRIRERPPRLPRPRPRPCDRPRP | -0.187
57 | RRIRVRPPRLPRPRPRPHCNPRP | -0.408
58 | RRIRKRPPRLPRPRPRPRGWPRP | 0.792
59 | RRIRIRPPRLPRPRPRPSLMPRP | -0.246
60 | RRIRARPPRLPRPRPRPGIIPRP | 0.106
61 | RRIRMRPPRLPRPRPRPWWNPRP | 0.045
62 | RRIRKRPPRLPRPRPRPAYQPRP | 0.0163
63 | RRIRERPPRLPRPRPRPWCNPRP | -0.112
64 | RRIRERPPRLPRPRPRPEAIPRP | -0.0664
65 | RRIRYRPPRLPRPRPRPPYIPRP | -0.496
66 | RRIRHRPPRLPRPRPRPPDEPRP | 0.43
67 | RRIRSRPPRLPRPRPRPMQSPRP | -0.00143
68 | RRIRDRPPRLPRPRPRPFIFPRP | -0.0526
69 | RRIRARPPRLPRPRPRPRHYPRP | -0.158
70 | RRIRNRPPRLPRPRPRPYLIPRP | -0.0464
71 | RRIRTRPPRLPRPRPRPQTSPRP | 0.413
72 | RRIRMRPPRLPRPRPRPRHPPRP | 0.617
73 | RRIRLRPPRLPRPRPRPDDYPRP | -0.247
74 | RRIRSRPPRLPRPRPRPMPLPRP | -0.0685
75 | RRIRFRPPRLPRPRPRPVYFPRP | -0.399

Row | Sequence | shrunken log2 fold change
76 | RRIRYRPPRLPRPRPRPSAGPRP | -0.165
77 | RRIRIRPPRLPRPRPRPYHLPRP | -0.115
78 | RRIRHRPPRLPRPRPRPLTHPRP | -1.14
79 | RRIRERPPRLPRPRPRPDKKPRP | 0.0282
80 | RRIRQRPPRLPRPRPRPLVCPRP | 0.0584
81 | RRIRCRPPRLPRPRPRPHLCPRP | -0.111
82 | RRIRDRPPRLPRPRPRPGMIPRP | 0.133
83 | RRIRRRPPRLPRPRPRPMYPPRP | -0.197
84 | RRIRDRPPRLPRPRPRPWLGPRP | 0.109
85 | RRIRWRPPRLPRPRPRPTAIPRP | 0.806
86 | RRIRVRPPRLPRPRPRPARHPRP | 0.287
87 | RRIRSRPPRLPRPRPRPCLDPRP | -0.224
88 | RRIRRRPPRLPRPRPRPCHVPRP | -0.238
89 | RRIRIRPPRLPRPRPRPVLPPRP | -0.242
90 | RRIRWRPPRLPRPRPRPARVPRP | 0.413
91 | RRIRLRPPRLPRPRPRPVFIPRP | -0.454
92 | RRIRERPPRLPRPRPRPFREPRP | -0.235
93 | RRIRIRPPRLPRPRPRPGVLPRP | -0.0531
94 | RRIRQRPPRLPRPRPRPYQLPRP | -0.00448
95 | RRIRKRPPRLPRPRPRPHHWPRP | 0.706
96 | RRIRVRPPRLPRPRPRPTHVPRP | 0.0149
97 | RRIRHRPPRLPRPRPRPEYCPRP | -0.201
98 | RRIRVRPPRLPRPRPRPANHPRP | -0.0489
99 | RRIRDRPPRLPRPRPRPFFEPRP | 0.219
100 | RRIRRRPPRLPRPRPRPPFYPRP | 0.463

Row | Sequence | shrunken log2 fold change
101 | RRIRLRPPRLPRPRPRPEDTPRP | -0.00686
102 | RRIRVRPPRLPRPRPRPWAKPRP | -0.00459
103 | RRIRKRPPRLPRPRPRPHWPPRP | 0.31
104 | RRIRHRPPRLPRPRPRPMPSPRP | 0.0183
105 | RRIRSRPPRLPRPRPRPLCHPRP | -0.157
106 | RRIRMRPPRLPRPRPRPVWFPRP | 0.46
107 | RRIRLRPPRLPRPRPRPEVQPRP | 0.0654
108 | RRIRARPPRLPRPRPRPRMGPRP | 0.692
109 | RRIRYRPPRLPRPRPRPNKTPRP | -0.258
110 | RRIRPRPPRLPRPRPRPVKGPRP | 0.203
111 | RRIRFRPPRLPRPRPRPQACPRP | -0.0456
112 | RRIRHRPPRLPRPRPRPSNHPRP | -0.461
113 | RRIRLRPPRLPRPRPRPPKHPRP | 0.117
114 | RRIRKRPPRLPRPRPRPAQIPRP | 0.342
115 | RRIRSRPPRLPRPRPRPNLRPRP | 0.0182
116 | RRIRGRPPRLPRPRPRPTFFPRP | 0.412
117 | RRIRVRPPRLPRPRPRPENAPRP | 0.173
118 | RRIRYRPPRLPRPRPRPRLRPRP | 0.0744
119 | RRIRGRPPRLPRPRPRPWCYPRP | 0.0576
120 | RRIRPRPPRLPRPRPRPFSNPRP | -0.218
121 | RRIRERPPRLPRPRPRPRKRPRP | 0.255
122 | RRIRCRPPRLPRPRPRPDPFPRP | -0.187
123 | RRIRLRPPRLPRPRPRPVWNPRP | 0.2
124 | RRIRVRPPRLPRPRPRPHGKPRP | -0.389
125 | RRIRMRPPRLPRPRPRPLVEPRP | 2.17
